Laboratory results as given in patent US20260242467A1.

Target: NKG2A (human) (UniProt P26715)
Experiment: flow cytometry on primary NK cells, 0 µM mabkine control of the competition assay

Sequence of UniProt P26715 (P26715 whole entry): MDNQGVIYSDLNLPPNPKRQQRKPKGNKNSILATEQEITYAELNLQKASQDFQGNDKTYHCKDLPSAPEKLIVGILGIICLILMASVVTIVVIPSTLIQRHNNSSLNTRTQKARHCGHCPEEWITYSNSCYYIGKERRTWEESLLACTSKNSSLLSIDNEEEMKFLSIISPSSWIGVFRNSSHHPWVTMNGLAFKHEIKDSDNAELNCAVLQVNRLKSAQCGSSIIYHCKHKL

anti-NKG2A (S19004C) from Biolegend (antibody)
% of CD56+ cells stained (without mabkine): 26.5%
